Assay results reported in publication PMC3906830 (The Febs Journal, 2013).

Target: T1, mature myostatin (human, UniProt O14793 267-375)
T1 sequence (looked up): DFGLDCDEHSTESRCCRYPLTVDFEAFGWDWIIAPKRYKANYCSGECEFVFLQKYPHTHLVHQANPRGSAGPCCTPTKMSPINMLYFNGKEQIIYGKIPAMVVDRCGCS
Experiment: SPR

Kd: 3.7 µM
B1: N-terminal region of myostatin prodomain (PRO43-115) (domain or fragment, human, UniProt O14793 43-115, looked up)
chain: TWRQNTKSSRIEAIKIQILSKLRLETAPNISKDVIRQLLPKAPPLRELIDQYDVQRDDSSDGSLEDDDYHATT
